Data published in US6576455B1, “Structure-based designed herbicide resistant products” (priority 1995, dated 2003).

T1: Maize AHAS (Zea mays, UniProt Q41769)
T1 construct: residue #2 corresponds to the putative amino terminus of the mature protein, i.e., after removal of a chloroplast targeting peptide; GST (glutathione S-transferase, pGEX-2T) (N, cleaved yes); made in house; host or cells: E. coli (DH5α), pGEX-2T vector pAC751
T1 sequence (Q41769 40-638): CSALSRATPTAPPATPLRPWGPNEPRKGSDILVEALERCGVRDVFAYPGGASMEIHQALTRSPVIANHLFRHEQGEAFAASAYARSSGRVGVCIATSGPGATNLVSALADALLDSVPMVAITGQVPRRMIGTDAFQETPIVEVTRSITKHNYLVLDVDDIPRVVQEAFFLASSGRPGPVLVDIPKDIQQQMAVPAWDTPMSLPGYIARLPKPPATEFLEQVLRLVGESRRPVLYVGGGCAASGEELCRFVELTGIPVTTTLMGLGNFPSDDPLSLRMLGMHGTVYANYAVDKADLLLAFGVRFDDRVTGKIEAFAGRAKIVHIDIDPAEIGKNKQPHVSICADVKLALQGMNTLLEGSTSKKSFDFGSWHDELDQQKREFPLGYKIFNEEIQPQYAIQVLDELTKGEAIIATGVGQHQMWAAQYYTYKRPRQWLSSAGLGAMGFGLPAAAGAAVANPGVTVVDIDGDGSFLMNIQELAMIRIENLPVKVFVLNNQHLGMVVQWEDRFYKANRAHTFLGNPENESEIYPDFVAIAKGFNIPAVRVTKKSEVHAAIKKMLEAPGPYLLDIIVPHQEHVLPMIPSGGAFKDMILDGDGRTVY

B1: Met124Ile: Arabidopsis AHAS variant (and gene) with Met124Ile mutation, corresponding to maize Met53Ile; vector pJK002 (protein, UniProt P17597 56-670, looked up, variant M124I)
Acetolactate synthase, …: SSSPSSISAVLNTTTNVTTTPSPTKPTKPETFISRFAPDQPRKGADILVEALERQGVETVFAYPGGASIEIHQALTRSSSIRNVLPRHEQGGVFAAEGYARSSGKPGICIATSGPGATNLVSGLADALLDSVPLVAITGQVPRRMIGTDAFQETPIVEVTRSITKHNYLVMDVEDIPRIIEEAFFLATSGRPGPVLVDVPKDIQQQLAIPNWEQAMRLPGYMSRMPKPPEDSHLEQIVRLISESKKPVLYVGGGCLNSSDELGRFVELTGIPVASTLMGLGSYPCDDELSLHMLGMHGTVYANYAVEHSDLLLAFGVRFDDRVTGKLEAFASRAKIVHIDIDSAEIGKNKTPHVSVCGDVKLALQGMNKVLENRAEELKLDFGVWRNELNVQKQKFPLSFKTFGEAIPPQYAIKVLDELTDGKAIISTGVGQHQMWAAQFYNYKKPRQWLSSGGLGAMGFGLPAAIGASVANPDAIVVDIDGDGSFIMNVQELATIRVENLPVKVLLLNNQHLGMVMQWEDRFYKANRAHTFLGDPAQEDEIFPNMLLFAAACGIPAARVTKKADLREAIQTMLDTPGPYLLDVICPHQEHVLPMIPSGGTFNDVITEGDGRIKY
B2: Met124His: Arabidopsis AHAS variant (and gene) with Met124His mutation, corresponding to maize Met53His; vector pJK003 (protein, UniProt P17597 56-670, looked up, variant M124H)
Acetolactate synthase, …: SSSPSSISAVLNTTTNVTTTPSPTKPTKPETFISRFAPDQPRKGADILVEALERQGVETVFAYPGGASHEIHQALTRSSSIRNVLPRHEQGGVFAAEGYARSSGKPGICIATSGPGATNLVSGLADALLDSVPLVAITGQVPRRMIGTDAFQETPIVEVTRSITKHNYLVMDVEDIPRIIEEAFFLATSGRPGPVLVDVPKDIQQQLAIPNWEQAMRLPGYMSRMPKPPEDSHLEQIVRLISESKKPVLYVGGGCLNSSDELGRFVELTGIPVASTLMGLGSYPCDDELSLHMLGMHGTVYANYAVEHSDLLLAFGVRFDDRVTGKLEAFASRAKIVHIDIDSAEIGKNKTPHVSVCGDVKLALQGMNKVLENRAEELKLDFGVWRNELNVQKQKFPLSFKTFGEAIPPQYAIKVLDELTDGKAIISTGVGQHQMWAAQFYNYKKPRQWLSSGGLGAMGFGLPAAIGASVANPDAIVVDIDGDGSFIMNVQELATIRVENLPVKVLLLNNQHLGMVMQWEDRFYKANRAHTFLGDPAQEDEIFPNMLLFAAACGIPAARVTKKADLREAIQTMLDTPGPYLLDVICPHQEHVLPMIPSGGTFNDVITEGDGRIKY
B3: Maize AHAS: wild type maize AHAS expressed from pAC751 in E. coli and purified, 65 kD (SEQ ID NO:1) (protein)
chain: GSAASPAMPMAPPATPLRPWGPTDPRKGADILVESLERCGVRDVFAYPGGASMEIHQALTRSPVIANHLFRHEQGEAFAASGYARSSGRVGVCIATSGPGATNLVSALADALLDSVPMVAITGQVPRRMIGTDAFQETPIVEVTRSITKHNYLVLDVDDIPRVVQEAFFLASSGRPGPVLVDIPKDIQQQMAVPVWDKPMSLPGYIARLPKPPATELLEQVLRLVGESRRPVLYVGGGCARSGEELRRFVELTGIPVTTTLMGLGNFPSDDPLSLRMLGMHGTVYANYAVDKADLLLALGVRFDDRVTGKIEAFASRAKIVHVDIDPAEIGKNKQPHVSICADVKLALQGMNALLEGSTSKKSFDFGSWNDELDQQKREFPLGYKYSNEEIQPQYAIQVLDELTKGEAIIGTGVGQHQMWAAQYYTYKRPRQWLSSAGLGAMGFGLPAAAGASVANPGVTVVDIDGDGSFLMNVQELAMIRIENLPVKVFVLNNQHLGMVVQWEDRFYKANRAHTYLGNPENESEIYPDFVTIAKGFNIPAVRVTKKNEVRAAIKKMLETPGPYLLDIIVPHQEHVLPMIPSGGAFKDMILDGDGRTVY
modifications: Zea Mays

Tests used:
[1] = tested on: Arabidopsis AHAS protein; details: no herbicide; for Specific Activity: b134 expresses specific activity as units/mg pure AHAS, 1 unit = 1 μmole acetolactate produced/hour; for % Catalytic Activity as Compared to Wild Type: relative to wild-type AHAS
Method: (a) specific or catalytic activity for conversion of pyruvate to acetolactate (expressed as units/mg pure AHAS, wherein a unit of activity is defined as 1 μmole acetolactate produced/hour), or for condensation of pyruvate and 2-ketobutyrate to form acetohydroxybutyrate (expressed as units/mg pure AHAS, wherein a unit of activity is defined as 1μ mole acetohydroxybutyrate produced/hr.;
(§1) The enzymatic properties of wild-type and variant AHAS produced in E. coli were measured by a modification of the method of Singh et al. (Anal. Biochem […]:173-179, 1988) as follows:
(§2) A reaction mixture containing 1× AHAS assay buffer (50 mM HEPES pH 7.0, 100 mM pyruvate, 10 mM MgCl2, 1 mM thiamine pyrophosphate (TPP), and 50 μM flavin adenine dinucleotide (FAD)) was obtained either by dilution of enzyme in 2× assay buffer or by addition of concentrated enzyme to 1× AHAS assay buffer. All assays containing imazethapyr and associated controls contained a final concentration of 5% DMSO due to addition of imazethapyr to assay mixtures as a 50% DMSO solution. Assays were performed in a final volume of 250 μL at 37° C. in microtiter plates. After allowing the reaction to proceed for 60 minutes, acetolactate accumulation was measured […] as described by Singh et al., Anal. Biochem 171:173-179, 1988.

[2] = tested on: Arabidopsis AHAS protein; details: increasing concentrations of imazethapyr, 5% DMSO; FIGS. 7, 9, 10, 11
Method: as §1, §2

[3] = tested on: tobacco plants; test: Spraying of transformed tobacco plants with imazethapyr; type: in vivo, Nicotiana tabacum cv. Wisconsin 38; details: twice the field rate (100 g/ha) of imazethapyr
Method: Leaf disc transformation of Nicotiana tabacum cv. Wisconsin 38 was performed as described by Horsch et al. (Science, 227: 1229-1231, 1985) with slight modifications. Leaf discs were cut from plants grown under sterile conditions and co-cultivated upsidedown in Murashige Skoog media (Sigma Chemical Co., St. Louis, Mo.) for 2-3 days at 25° C. in darkness with Agrobacterium tumefaciens strains containing plasmids pJK002, pJK003, or pJK004. The discs were blotted dry and transferred to regeneration Murashige Skoog medium with B5 vitamins containing 1 mg/L benzyladenine and 0.1 mg/l 1-Napthyl Acetic Acid, 100 mg/L kanamycin, and 500 mg/L cefotaxime (all obtained from Sigma).
Kanamycin-resistant tobacco shoots were transferred to medium containing a 0.25 μM imazethapyr.

[4] = type: physicochemical, Zea mays
Method: The fusion protein was digested overnight at room temperature. Digested samples were dialyzed against MTPBS and passed twice through a glutathione-agarose column equilibrated in MTPBS to remove the released glutathione transferase protein. […] The concentrated sample was loaded onto a 1.5×95 cm Sephacryl S-100 gel filtration column equilibrated in gel filtration buffer (50 mM HEPES, 150 mM NaCl, pH 7.0). Two mL fractions were collected at a flow rate of 0.14 mL/min. Enzyme stability was tested by storage of the enzyme at 4° C. in gel filtration buffer with the addition of 0.02% sodium azide and in the presence or absence of 2 mM thiamine pyrophosphate and 100 μM flavin adenine dinucleotide (FAD).
Maize AHAS expressed and purified from pAC751 as described in Example 3 above is active in the conversion of pyruvate to acetolactate. Full AHAS activity is dependent on the presence of the cofactors FAD and TPP in the assay medium. […] The activity of the purified enzyme with TPP only, or with no cofactors, was less than 1% of the activity detected in the presence of both TPP and FAD. Normally, AHAS present in crude plant extracts is very labile, particularly in the absence of substrate and cofactors.

[5] = target: T1, Maize AHAS; test: Enzymatic activity and cofactor dependence of purified maize AHAS expressed from pAC751; type: biochemical
Method: E. coli (DH5α) cells transformed with the pGEX-2T vector containing either the maize wild type AHAS gene (vector designation pAC751), the Arabidopsis Ser653Asn mutant, or the Arabidopsis Ile401Phe mutant were grown overnight in LB broth containing 50 μg/mL ampicillin. The overnight culture of E. coli was diluted 1:10 in 1 L LB, 50 μg/mL ampicillin, and 0.1% v/v antifoam A. The culture was incubated at 37° C. with shaking until the OD600 reached approximately 0.8. Isopropylthiogalactose (IPTG) was added to a final concentration of 1 mM and the culture was incubated for 3 more hours.
Cells were harvested by centrifugation at 8,670×g for 10 minutes in a JA-10 rotor and resuspended in 1/100th of the original culture volume in MTPBS (16 mM Na2HPO4, 4 mM NaH2PO4, 150 mM NaCl, pH 7.3). Triton X-100 and lysozyme were added to a final concentration of 1% v/v and 100 μg/mL, respectively. Cells were incubated at 30° C. for 15 minutes cooled to 4° C. on ice, and were lysed by sonication for 10 seconds at level 7 with a Branson Sonifier Cell Disrupter equipped with a microtip probe. The cell free extract was centrifuged at 35,000×g for 10 min. at 4° C. The supernatant was decanted and the centrifugation step was repeated.
Purification of expressed fusion proteins was performed as modified from Smith and Johnson (Gene 67:31-40, 1988). […]

Row | Molecule | Specific Activity [1] | % Catalytic Activity as Compared to Wild Type [1] [%] | resistance of enzymatic activity to imazethapyr (PURSUIT) [2] | resistance of transformed tobacco plants to spraying with imazethapyr [3] | degradation products in SDS-PAGE gels after storage [4] | catalytic activity after storage ([4]; one month at 4° C. in 50 mm HEPES pH 7.0, 150 mM NaCl, 0.02% NaN3, presence or absence of FAD and TPP) | AHAS activity when only FAD was added to the assay medium ([5]; FAD only, no TPP) | activity with TPP only, or with no cofactors, relative to activity in the presence of both TPP and FAD ([5]; TPP only or no cofactors)
1 | B1 | 102 | 102 | significant level of imidazolinone resistance | resistant | – | – | – | –
2 | B2 | 42.5 | 42.6 | high degree of resistance | – | – | – | – | –
3 | B3 | – | – | – | – | no degradation products were visible | no lose in catalytic activity | No activity was detected | less than 1%
